Molecular target: T1, human IL-8 (human, UniProt P10145 28-99, limits assumed)
T1 construct: also called hIL-8; hIL8
Experiment: TRFIA, chemokine coated on plate, biotinylated anti-mouse IgG and streptavidin-europium detection
Procedure: Briefly, each antigen (human IL-8, Gro-alpha, Gro-beta, Gro-gamma, GCP-2, and ENA-78, and hIL-18 when used as negative control) is individually coated onto a 96-well immunofluorescent plate. The plates are then washed and blocked with a commercially available blocking solution. Blocking solution is emptied and samples containing the mAb are added into each well and incubated for 40 to 60 minutes (this allows the mAb to bind to the target chemokines). The plates are then washed again and a detection Ab is added to each well. […] The detection antibody is conjugated to either europium or biotin. Following another round of washing, to remove unbound detection Ab, a solution of streptavidin-europium was added to biotin detected assays. Streptavidin-europium binds to the biotin allowing for detection. After a final wash to remove unbound streptavidin-europium, or in the case of the humanized MAb assay after the europium conjugate secondary is washed, each well is filled with a chelating detergent solution to activate the europium producing fluorescence. The greater the fluorescence recorded is directly proportionate to the amount of detection Ab present in the well which is directly linked and proportionate to the amount of the chemokine binding mAb.

B1: mouse monoclonal antibody 656.35 (antibody, IgG2a, V domains shown)
VH: QVQLQQSGAELVRPGTSVTISCKASGYTFTNYWIVWVKQRPGHGLEWIGDLYSGGGYTFYSENFKGKATLTADTSSSTAYMHLISLTSEDSAVYFCARSGYDRTWFAHWGQGSLVTVSA
VL: DIKMTQSPSSMSASLGERVTITCQASQDIESYLSWYQQKPWKSPKTLIYYATRLADGVPSRFSGSGSGQDYSLTISSLESDDTATYYCLQHGESPPTFGAGTKLELKR
notes: Murine hybridoma antibody; also called 2x656.35
  EC50 (read off the curve): ~0.04 µg/mL

Source: patent US20110229475A1 (GlaxoSmithKline, published 2011)
